Experimental findings from publication PMC3680600 (Journal of the American Chemical Society, 2013) are described below.

No end group written: not given here. Bounds are passed on as bounds.

In the first test the target is NF-κB Essential Modulator (NEMO), full-length recombinant human protein (residues 2–419) with five cysteine-to-alanine substitutions (human) (UniProt Q9Y6K9). The experiment in a line: fluorescence polarisation.
Conditions: not given
On the technique in general: Polarisation of emitted light reports the rotation of a fluorescent probe.
Broadly, the Kd is the equilibrium constant for the complex coming apart. “MBP-IKKβ-His(C716S) L708A (from UniProt O14920 701-745) (domain or fragment)”: the Kd is above 0.87 µM.

As to “WT MBP-IKKβ-His (from UniProt O14920 701-745) (domain or fragment)”, the Kd was determined as 0.015 µM.

In the case of “MBP-IKKβ-His(C716S) W741A (from UniProt O14920 701-745) (domain or fragment)”, the dissociation constant Kd is above 0.87 µM.

For the substance “MBP-IKKβ-His(C716S) W739A (from UniProt O14920 701-745) (domain or fragment)”, the Kd is above 0.87 µM.

For the substance “cleaved IKKβ peptide D738A (from UniProt O14920 701-745)”, the dissociation constant (Kd) turned out to be 11 µM.

On to “cleaved IKKβ peptide L742A (from UniProt O14920 701-745)”, for which the dissociation constant (Kd) is 5.5 µM.

For “MBP-IKKβ-His(C716S) L742A (from UniProt O14920 701-745) (domain or fragment)”, the dissociation constant (Kd) was above 0.87 µM.

For the substance “cleaved IKKβ peptide W739A (from UniProt O14920 701-745)”, the Kd was 35 µM.

Consider “cleaved IKKβ peptide L708A (from UniProt O14920 701-745)”, for which the Kd is 2.7 µM.

Regarding “cleaved IKKβ peptide W741A (from UniProt O14920 701-745)”, the dissociation constant Kd worked out at 9.3 µM.

For the substance “MBP-IKKβ-His(C716S) L719A (from UniProt O14920 701-745) (domain or fragment)”, the Kd was above 0.87 µM.

Take “MBP-IKKβ-His(C716S) D738A (from UniProt O14920 701-745) (domain or fragment)”: the Kd is above 0.87 µM.

Consider “cleaved IKKβ peptide L719A (from UniProt O14920 701-745)”, for which the Kd came to 21 µM.

The target of another test is full-length recombinant human NEMO (Homo sapiens, UniProt Q9Y6K9, C11A/C131A/C167A/C76A/C95A). The test is described as follows: Fluorescence anisotropy. Particulars: KD2 competition assay vs KD1 direct binding assay.
For “PAKKSEELVAEAHNLCTLLENAIQDTVREQDQSFTALDWSWLQTE [IKKβ(701–745)]”, the “KD2 of unlabeled peptide relative to KD1 of FITC-IKKβ” value is on record as ~ 4 fold.
